A word on the Ki: it is the equilibrium dissociation constant of an inhibitor or competing ligand from its target.

We go through five molecules from US20110237503A1 (Eli Lilly, published 2011).

Where no end group is shown, it is not given here. Side-chain parts run from the residue outwards. [ ]: non-standard residue; d: D form. maleimide = maleimide end of mPEG-20 kDa maleimide, which attaches the 20 kDa PEG to the Cys thiol; 1Nal = N[C@@H](Cc1cccc2ccccc12)C(=O)O; Aib = CC(C)(N)C(=O)O

The target of assay [1] is T1, human glucose-dependent insulinotropic polypeptide receptor (hGIP-R) (human, UniProt P48546 22-466).
T1 sequence (looked up): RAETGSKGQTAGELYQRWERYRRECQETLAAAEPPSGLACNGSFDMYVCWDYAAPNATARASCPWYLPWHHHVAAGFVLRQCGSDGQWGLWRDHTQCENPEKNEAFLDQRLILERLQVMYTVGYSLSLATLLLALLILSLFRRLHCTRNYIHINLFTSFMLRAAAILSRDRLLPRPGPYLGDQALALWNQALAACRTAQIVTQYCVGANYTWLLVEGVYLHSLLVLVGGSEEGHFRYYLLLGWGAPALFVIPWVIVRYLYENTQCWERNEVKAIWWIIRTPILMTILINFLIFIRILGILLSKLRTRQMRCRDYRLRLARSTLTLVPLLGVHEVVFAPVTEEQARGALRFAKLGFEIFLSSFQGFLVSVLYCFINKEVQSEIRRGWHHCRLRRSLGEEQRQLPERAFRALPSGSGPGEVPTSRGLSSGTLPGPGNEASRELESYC
Briefly: cell-based or functional assay.

In assay [2] the target is T2, human glucagon-like peptide 1 receptor (hGLP-1-R) (human, UniProt P43220 24-463).
T2 construct: whole, on cells; The cAMP assay uses whole hGLP-1-R-293HEK cells (pcDNA3.1/Neo); also called GLP-1 receptor
As to the kind of experiment: SPA competition, I-125 GLP-1 displacement, hGLP-1-R 293HEK membranes. How it is done:
The binding buffer contains 25 mM HEPES, pH 7.4, 2.5 mM CaCl₂, 1 mM MgCl₂, 0.1% fatty acid free BSA, 0.003% Tween20, and Roche Complete™ Inhibitors without EDTA. […] The peptide analog is dissolved in PBS and serially diluted in binding buffer. […] Plates are read with a PerkinElmer Life and Analytical Sciences Trilux MicroBeta® scintillation counter after 12 hours of settling time at room temperature.
The IC₅₀ concentration is converted to Ki using the Cheng-Prusoff equation.

In assay [3] the target is T2, human glucagon-like peptide 1 receptor …. Briefly: cell-based or functional assay.
In assay [4] the target is T1, human glucose-dependent insulinotropic …. Briefly: SPA competition, [125I]GIP displacement, hGIP-R CHO-S membranes. How it is done: The peptides analogs are serially diluted into binding buffer. […] Then, 90 μL membranes (4 μg/well), 50 μL [¹²⁵I] […] Plates are read with a MicroBeta® scintillation counter after 12 hours of settling time at room temperature.
In assay [5] the target is T3, human glucagon receptor (hGlucR) (human, UniProt P47871 26-477).
T3 construct: whole, on cells
As to the kind of experiment: ratio of Ki values from SPA competition binding assays (Gluc-R against GIP-R and GLP-1-R).

Assay [6] concerns the target T2, human glucagon-like peptide 1 receptor …. As to the kind of experiment: SPA competition binding assay.
For assay [7], the target named is T1, human glucose-dependent insulinotropic …. Briefly: SPA competition binding assay.

T3 sequence (P47871 26-477): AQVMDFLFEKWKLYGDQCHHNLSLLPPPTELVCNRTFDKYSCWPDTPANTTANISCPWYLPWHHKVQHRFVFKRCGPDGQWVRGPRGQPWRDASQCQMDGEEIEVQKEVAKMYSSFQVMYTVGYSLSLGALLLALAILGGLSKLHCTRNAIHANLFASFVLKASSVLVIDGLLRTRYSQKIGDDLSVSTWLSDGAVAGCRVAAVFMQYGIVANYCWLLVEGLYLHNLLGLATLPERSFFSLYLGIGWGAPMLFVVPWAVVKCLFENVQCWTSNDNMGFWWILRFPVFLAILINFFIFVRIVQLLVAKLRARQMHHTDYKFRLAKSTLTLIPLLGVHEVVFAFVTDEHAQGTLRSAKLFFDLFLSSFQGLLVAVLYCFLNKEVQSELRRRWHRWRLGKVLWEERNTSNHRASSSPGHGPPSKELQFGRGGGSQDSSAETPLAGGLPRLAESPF

Regarding Y[Aib]EGTFTSDYSI[Aib]LDKIAQRAFVQWLIA[Aib]KGKKQEWKHQITQ (not fully specified (C-terminus), Not PEGylated) [Example 2 (Aib2, Aib13, Aib29 GIP analog, 42 residues)], in assay [1], the “EC50 (relative), intracellular cAMP in hGIP-R-CHO-S cells, HTRF” value amounted to 0.023 nM. In addition, the Ki is 0.059 nM in assay [2], 0.023 nM in assay [4], less than 100 nM in assay [6] and less than 100 nM in assay [7]. For the same molecule, the “EC50 (relative), intracellular cAMP in hGLP-1-R-293HEK cells, HTRF” value in assay [3] amounted to 0.045 nM. The “selectivity ratio versus Gluc-R” value in assay [5] was not below 100 times.
Regarding Y[Aib]EGTFTSDYSI[Aib]LDKIAQRA[1Nal]VQWLIA[Aib]KGKKQEWKHQITQ (not fully specified (C-terminus), Not PEGylated) [Example 1 (Aib2, Aib13, Nal22, Aib29 GIP analog, 42 residues)], the “EC50 (relative), intracellular cAMP in hGIP-R-CHO-S cells, HTRF” value in assay [1] is 0.005 nM. Further, the Ki in assay [2] is 0.096 nM; in assay [4], 0.044 nM; in assay [6], less than 100 nM; in assay [7], less than 100 nM. Also, the “EC50 (relative), intracellular cAMP in hGLP-1-R-293HEK cells, HTRF” value in assay [3] worked out at 0.036 nM. In addition, the “selectivity ratio versus Gluc-R” value in assay [5] was not below 100 times.
Y[Aib]EGTFTSDYSI[Aib]LDKIAQRA[1Nal]VQWLIA[Aib]KGKKQEWKHQITQC([maleimide-mPEG 20 kDa])C([maleimide-mPEG 20 kDa])-NH2 (also called Ex 4) [Aib2, Aib13, Nal22, Aib29, Cys43(PEG20K), Cys44(PEG20K)-GIP (Example 4, PEGylated with mPEG-MAL)]: in assay [1], the “EC50 (relative), intracellular cAMP in hGIP-R-CHO-S cells, HTRF” value came to 0.277 nM. The Ki in assay [2] is 5.27 nM; in assay [4], 8.23 nM; in assay [6], less than 100 nM; in assay [7], less than 100 nM. Also, in assay [3], the “EC50 (relative), intracellular cAMP in hGLP-1-R-293HEK cells, HTRF” value amounted to 0.844 nM. Further, in assay [5], the “selectivity ratio versus Gluc-R” value was not below 100 times.
With Y[Aib]EGTFTSDYSI[Aib]LDKIAQRA[1Nal]VQWLIA[Aib]KGKKQEWKHQITQC([acetamide-mPEG 20 kDa])C([acetamide-mPEG 20 kDa])-NH2, the “EC50 (relative), intracellular cAMP in hGIP-R-CHO-S cells, HTRF” value in assay [1] came to 0.207 nM. The Ki is 6.2 nM in assay [2], 9.22 nM in assay [4], less than 100 nM in assay [6] and less than 100 nM in assay [7]. For the same molecule, in assay [3], the “EC50 (relative), intracellular cAMP in hGLP-1-R-293HEK cells, HTRF” value was found to be 0.959 nM. Further, the “selectivity ratio versus Gluc-R” value in assay [5] is not below 100 times.
As to Y[Aib]EGTFTSDYSI[Aib]LDKIAQRAFVQWLIA[Aib]KGKKQEWKHQITQC([maleimide-mPEG 20 kDa])C([maleimide-mPEG 20 kDa])-NH2 [Aib2, Aib13, Aib29, Cys43(PEG20K), Cys44(PEG20K)-GIP (Example 3, PEGylated with mPEG-MAL)], in assay [1], the “EC50 (relative), intracellular cAMP in hGIP-R-CHO-S cells, HTRF” value came out at 0.244 nM. Further, the inhibitory constant (Ki) is 9 nM in assay [2], 9.79 nM in assay [4], less than 100 nM in assay [6] and less than 100 nM in assay [7]. For the same molecule, the “EC50 (relative), intracellular cAMP in hGLP-1-R-293HEK cells, HTRF” value in assay [3] stood at 1.11 nM. Also, the “selectivity ratio versus Gluc-R” value in assay [5] was not below 100 times.
